We go through 1 substance from US7276258B2, “Herbal extract and compound lupinoside and its analogues as anti-diabetic type II drugs from plant Pueraria tuberosa” (Council of Scientific & Industrial Research, priority 2004, dated 2007).

This assay addresses T1, insulin receptor (Mus musculus, UniProt P15208).
T1 construct: endogenous in cells; host or cells: 3T3-L1 adipocytes (membrane fraction solubilized with lithium diiodosalicylate / 0.1% Triton X-100)
Description: Scatchard analysis of 125I-insulin binding to solubilized receptor preparation from 3T3L1 adipocytes. The settings on record: insulin alone.
Description: Radiolabeled insulin binding to solubilized receptor preparations. Control and FFA treated 3T3L1 adipocytes were first washed thrice with 0.02M Phosphate Buffer (pH-7.4) containing 0.14M NaCl and then resuspended in Lysis Buffer (20 mM Tris-HCl, 40 mM NaCl, 5 mM EDTA, 5 mM Iodoacetamide, pH-8.4) supplemented with protease inhibitors (1 μg/ml aprotinin, 1 μg/ml pepstatin, 1 μg/ml leupeptin, 2 mM phenyl methyl sulfonyl fluoride and 1 μg/ml trypsin inhibitor). These cells were then freeze thawed thrice at −70° C. and centrifuged at 10,000 rpm for 15 min at 4° C. The pellet collected was resuspended in Lysis Buffer, sonicated and again centrifuged at 10,000 rpm for 15–20 min at 4° C. The supernatant was dialysed overnight against 10 mM Tris-HCl (pH-7.4) buffer and volume reduced by lyophilisation. […]
Scatchard Analysis. […] After the termination of the incubations, free and bound radioactivity was separated by the addition of 500 μl of 0.5% chilled polyethylene glycol (PEG; MW 6000). […] The radioactivity in the final pellet was measured in a ^125I-gamma counter. The specific binding was calculated by subtracting non-specific binding from total binding. Data were then analyzed by Scatchard analysis to determine the affinity and capacity of insulin receptor binding in the presence or absence of palmitic acid (see FIG. 1b).

T1 sequence (P15208 28-748 limits assumed): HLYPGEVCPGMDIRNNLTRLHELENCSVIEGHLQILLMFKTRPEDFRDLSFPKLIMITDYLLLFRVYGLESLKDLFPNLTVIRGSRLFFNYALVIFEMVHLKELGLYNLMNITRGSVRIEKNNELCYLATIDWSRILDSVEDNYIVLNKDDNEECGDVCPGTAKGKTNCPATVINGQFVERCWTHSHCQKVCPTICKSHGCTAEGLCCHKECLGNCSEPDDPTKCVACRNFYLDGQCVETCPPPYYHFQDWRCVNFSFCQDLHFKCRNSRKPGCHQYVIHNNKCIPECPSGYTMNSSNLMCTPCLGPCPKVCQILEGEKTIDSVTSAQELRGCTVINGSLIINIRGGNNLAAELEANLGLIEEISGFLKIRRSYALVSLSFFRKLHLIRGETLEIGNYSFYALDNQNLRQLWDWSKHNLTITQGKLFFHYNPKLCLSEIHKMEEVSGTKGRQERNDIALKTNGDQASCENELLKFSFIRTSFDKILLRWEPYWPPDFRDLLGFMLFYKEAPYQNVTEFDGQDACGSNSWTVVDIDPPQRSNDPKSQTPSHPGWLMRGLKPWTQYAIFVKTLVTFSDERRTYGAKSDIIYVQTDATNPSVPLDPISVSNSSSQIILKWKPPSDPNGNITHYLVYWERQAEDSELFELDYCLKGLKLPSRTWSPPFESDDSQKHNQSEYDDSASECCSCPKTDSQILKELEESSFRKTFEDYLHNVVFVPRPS
T1 sequence (P15208 753-1372 partner limits assumed): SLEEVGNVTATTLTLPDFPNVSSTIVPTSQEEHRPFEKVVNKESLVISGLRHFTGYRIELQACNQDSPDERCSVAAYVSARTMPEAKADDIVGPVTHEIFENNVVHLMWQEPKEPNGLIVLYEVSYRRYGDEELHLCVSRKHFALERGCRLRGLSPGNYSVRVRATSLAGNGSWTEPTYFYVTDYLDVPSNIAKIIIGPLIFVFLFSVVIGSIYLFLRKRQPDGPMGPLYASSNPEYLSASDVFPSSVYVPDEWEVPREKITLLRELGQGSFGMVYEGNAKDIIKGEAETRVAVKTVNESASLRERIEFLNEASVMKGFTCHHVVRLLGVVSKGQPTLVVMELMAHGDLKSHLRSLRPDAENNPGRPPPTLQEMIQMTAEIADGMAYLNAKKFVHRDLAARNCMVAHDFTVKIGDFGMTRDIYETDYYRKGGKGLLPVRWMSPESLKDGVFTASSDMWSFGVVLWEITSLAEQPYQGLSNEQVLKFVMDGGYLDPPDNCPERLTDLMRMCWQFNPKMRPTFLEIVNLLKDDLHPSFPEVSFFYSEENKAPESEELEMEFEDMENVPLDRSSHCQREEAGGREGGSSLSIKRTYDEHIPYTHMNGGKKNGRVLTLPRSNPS

On to “insulin: recombinant human insulin, radiolabelled with 125I for binding”, for which the “Ka of insulin binding to solubilized receptor” value stood at 1.6e+09 M⁻¹.
